Among the data in patent US20250011428A1 are Maximum response in RGA assay (LU) and Maximum response values, retold here.

Substitutions are numbered along the chain they refer to.

The target in assay [1] is Gamma receptors FcγRI, FcγRII, and FcγRIII expressed on THP-1 cells. As to the kind of experiment: cell-based or functional assay.
For another assay, the target named is hC1q (human) (UniProt P02745). As to the kind of experiment: SPR Biacore T200; IgG amine-coupled on CM5, hC1q as analyte; response normalized to parental (=100).
hC1q (human), sequence (P02745 23-245 limits assumed, chain 1 of 3): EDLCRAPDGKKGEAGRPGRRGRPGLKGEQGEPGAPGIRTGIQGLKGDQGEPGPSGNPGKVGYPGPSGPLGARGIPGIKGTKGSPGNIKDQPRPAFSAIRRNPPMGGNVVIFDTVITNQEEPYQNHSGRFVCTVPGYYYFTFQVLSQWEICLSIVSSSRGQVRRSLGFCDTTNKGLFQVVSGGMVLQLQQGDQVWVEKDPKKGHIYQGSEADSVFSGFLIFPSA
hC1q (human), sequence (P02746 28-253 limits assumed, chain 2 of 3, further chain): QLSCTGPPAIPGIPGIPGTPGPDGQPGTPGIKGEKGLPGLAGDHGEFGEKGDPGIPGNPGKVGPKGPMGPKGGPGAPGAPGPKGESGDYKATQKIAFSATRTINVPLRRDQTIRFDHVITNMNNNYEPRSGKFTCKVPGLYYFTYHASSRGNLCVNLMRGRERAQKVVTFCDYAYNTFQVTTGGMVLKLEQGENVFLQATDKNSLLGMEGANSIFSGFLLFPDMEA
hC1q (human), sequence (P02747 29-245 limits assumed, chain 3 of 3, further chain): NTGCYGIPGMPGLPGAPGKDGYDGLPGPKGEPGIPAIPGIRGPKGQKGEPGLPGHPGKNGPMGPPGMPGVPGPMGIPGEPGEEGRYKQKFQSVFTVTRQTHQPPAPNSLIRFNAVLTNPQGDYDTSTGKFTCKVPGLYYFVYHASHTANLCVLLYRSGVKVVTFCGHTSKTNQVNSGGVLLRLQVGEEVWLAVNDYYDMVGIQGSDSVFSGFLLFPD

B1: CD3_2 (antibody, human IgG1, lambda)
heavy: EVQLVESGGGLVQPGGSLKLSCAASGFTFNTYAMNWVRQASGKGLEWVGRIRSKYNNYATYYADSVKDRFTISRDDSKSTLYLQMNSLKTEDTAVYYCVRHGNFGNSYVSWFAYWGQGTLVTVSSASTKGPSVFPLAPSSKSTSGGTAALGCLVKDYFPEPVTVSWNSGALTSGVHTFPAVLQSSGLYSLSSVVTVPSSSLGTQTYICNVNHKPSNTKVDKRVEPKSCDKTHTCPPCPAPELCCHPSVFLFPPKPKDTLMISRTPEVTCVVVGLRHEDPEVKFNWYVDGVEVHNAKTKPREEQYCGCYRVVSVLTVLHQDWLNGKEYKCKVSNKALPAPIEKTISKAKGQPREPQVYTLPPSRDELTKNQVSLTCLVKGFYPSDIAVEWESNGQPENNYKTTPPVLDSDGSFFLYSKLTVDKSRWQQGNVFSCSVMHEALHNHYTQKSLSLSPGK
light: QAVVTQEPSLTVSPGGTVTLTCRSSTGAVTTSNYANWVQQKPGQAPRGLIGGTNKRAPWTPARFSGSLLGDKAALTLSGAQPEDEAEYFCALWYSNLWVFGGGTKLTVLGQPKAAPSVTLFPPSSEELQANKATLVCLISDFYPGAVTVAWKADSSPVKAGVETTTPSKQSNNKYAASSYLSLTPEQWKSHRSYSCQVTHEGSTVEKTVAPTECS
For the molecule B1, in assay [1], the Maximum response in RGA assay (LU) was 25500 LU. In the assay with hC1q (human), the Maximum response at 20 nM hC1q (RU) was 7 RU.

B2: CD3_5_YTE (antibody, human IgG1, lambda)
heavy: B1 heavy with H245G, M260Y, S262T, T264E, G273D, L274V, R275S, G306S
light: B1 light
Molecule B2 yielded a Maximum response in RGA assay (LU) in assay [1] of 13100 LU.

B3: CD3_4_YTE (antibody, human IgG1, lambda)
heavy: B1 heavy with M260Y, S262T, T264E, G273D, L274V, R275S
light: B1 light
B3 returned a Maximum response in RGA assay (LU) in assay [1] of 16500 LU.

B4: IgG4_CD3_S228P_YTE (antibody)
heavy: EVQLVESGGGLVQPGGSLKLSCAASGFTFNTYAMNWVRQASGKGLEWVGRIRSKYNNYATYYADSVKDRFTISRDDSKSTLYLQMNSLKTEDTAVYYCVRHGNFGNSYVSWFAYWGQGTLVTVSSASTKGPSVFPLAPCSRSTSESTAALGCLVKDYFPEPVTVSWNSGALTSGVHTFPAVLQSSGLYSLSSVVTVPSSSLGTKTYTCNVDHKPSNTKVDKRVESKYGPPCPPCPAPEFLGGPSVFLFPPKPKDTLYITREPEVTCVVVDVSQEDPEVQFNWYVDGVEVHNAKTKPREEQFNSTYRVVSVLTVLHQDWLNGKEYKCKVSNKGLPSSIEKTISKAKGQPREPQVYTLPPSQEEMTKNQVSLTCLVKGFYPSDIAVEWESNGQPENNYKTTPPVLDSDGSFFLYSRLTVDKSRWQEGNVFSCSVMHEALHNHYTQKSLSLSL
light: B1 light
Turning to B4, the Maximum response in RGA assay (LU) in assay [1] was 34900 LU.

B5: IgG4_CD3_6 (antibody)
heavy: B4 heavy with P233S, L240C, G241C, Y257M, T259S, E261T
light: B1 light
The molecule B5 yielded a Maximum response in RGA assay (LU) in assay [1] of 12000 LU.

B6: IgG4_CD3_6_YTE (antibody)
heavy: B4 heavy with P233S, L240C, G241C
light: B1 light
Take B6: in assay [1], the Maximum response in RGA assay (LU) turned out to be 7910 LU.

B7: CD3_3_YTE (antibody, human IgG1, lambda)
heavy: B1 heavy with M260Y, S262T, T264E, V272T, H276D
light: B1 light
As to B7, the Maximum response in RGA assay (LU) in assay [1] came out at 13100 LU.

B8: CD3_1_YTE (antibody, human IgG1, lambda)
heavy: B1 heavy with S247R, M260Y, S262T, T264E, V272T, H276D, R309S
light: B1 light
In assay [1], B8 displayed a Maximum response in RGA assay (LU) of 12000 LU.

B9: IgG4_CD3_9_YTE (antibody)
heavy: B4 heavy with P233S, L240C
light: B1 light
Regarding B9, the Maximum response in RGA assay (LU) in assay [1] is 5610 LU.

B10: CD3_2_YTE (antibody, human IgG1, lambda)
heavy: B1 heavy with M260Y, S262T, T264E
light: B1 light
B10: the Maximum response in RGA assay (LU) in assay [1] amounted to 11900 LU.

B11: IgG4_CD3_WT_YTE (antibody)
heavy: B4 heavy with P233S
light: B1 light
B11 gave a Maximum response in RGA assay (LU) in assay [1] of 31800 LU.

B12: CD3_5 (antibody, human IgG1, lambda)
heavy: B1 heavy with H245G, G273D, L274V, R275S, G306S
light: B1 light
For B12, the Maximum response in RGA assay (LU) in assay [1] stood at 19900 LU.

B13: CD3_4 (antibody, human IgG1, lambda)
heavy: B1 heavy with G273D, L274V, R275S
light: B1 light
In assay [1], B13 came in with a Maximum response in RGA assay (LU) of 24900 LU. Besides, in the assay with hC1q (human), the Maximum response at 20 nM hC1q (RU) was found to be 9 RU.

B14: IgG4_CD3_8_YTE (antibody)
heavy: B4 heavy with P233S, G241C
light: B1 light
B14: the Maximum response in RGA assay (LU) in assay [1] worked out at 6450 LU.

B15: IgG4_CD3_8 (antibody)
heavy: B4 heavy with P233S, G241C, Y257M, T259S, E261T
light: B1 light
As to B15, the Maximum response in RGA assay (LU) in assay [1] turned out to be 7040 LU.

B16: CD3_DANAPA_YTE (antibody, human IgG1, lambda, N297A)
heavy: EVQLVESGGGLVQPGGSLKLSCAASGFTFNTYAMNWVRQASGKGLEWVGRIRSKYNNYATYYADSVKDRFTISRDDSKSTLYLQMNSLKTEDTAVYYCVRHGNFGNSYVSWFAYWGQGTLVTVSSASTKGPSVFPLAPSSKSTSGGTAALGCLVKDYFPEPVTVSWNSGALTSGVHTFPAVLQSSGLYSLSSVVTVPSSSLGTQTYICNVNHKPSNTKVDKRVEPKSCDKTHTCPPCPAPELLGGPSVFLFPPKPKDTLYITREPEVTCVVVAVSHEDPEVKFNWYVDGVEVHNAKTKPREEQYASTYRVVSVLTVLHQDWLNGKEYKCKVSNKALAAPIEKTISKAKGQPREPQVYTLPPSRDELTKNQVSLTCLVKGFYPSDIAVEWESNGQPENNYKTTPPVLDSDGSFFLYSKLTVDKSRWQQGNVFSCSVMHEALHNHYTQKSLSLSPGK
light: B1 light
In assay [1], B16 gave a Maximum response in RGA assay (LU) of 12300 LU.

B17: CD3_3 (antibody, human IgG1, lambda)
heavy: B1 heavy with V272T, H276D
light: B1 light
In assay [1], B17 had a Maximum response in RGA assay (LU) of 23200 LU. Besides, in the assay with hC1q (human), the Maximum response at 20 nM hC1q (RU) was 7 RU.

B18: CD3_1 (antibody, human IgG1, lambda)
heavy: B1 heavy with S247R, V272T, H276D, R309S
light: B1 light
Take B18: the Maximum response in RGA assay (LU) in assay [1] turned out to be 24700 LU.
